Test results: the DeepSol protein solubility set

Test: soluble on expression in E. coli; label from the status in PepcDB or PDB records

| Sequence | soluble on expression in E. coli |
| --- | --- |
| MCETCLIVIMDSSHDFSFADTFALQVATWFSDVFAQPTVVQRQAWAAISAGENALVVAPTGSGKTLAAFLWALNELVQGSGQTALLSRQAAGSAEVEASRAKGVKVVYISPLKALGVDVENNLRAPLTGINQVAARLGIDQSDITVGVRSGDTPASERSKQVRNPPDILITTPESLYLMLTSKARSILTTVDTVIVDEIHAMAGTKRGVHLALSLERLEHLAAQPVQRIGLSATVRPLDVVARFLGGDRPVEVINPPLEKKWQLAVHVPVDDMSDLPTPEPVSEIGEATIDDPLGLTTQPEGFAESALPAQGSMWTFIEQDVFDEVMEHRSTLVFVNSRRTAERLTSRLNELYAQRFQPEALSPALRRPPAQLMKSIDIAGEATAIIARAHHGSVSKDERALTEKMLKQGELRAVVSTSSLELGIDMGAVDKVIQVESPPSVASGLQRVGRAGHVVGAVSHGSFYPKHRADLVQTAVTVGRMTEGLIEELHVPTNALDVLVQHTVAAVAMDDLDVEDWYATVVRAYPYRDLPREAFDAAIDLTAGVYPSTDFAELRPKVIYDRITGTLSARPGAQRTAVINGGTIPDRGMFGVFLVGSGESGAPRRVGELDEEMVYESRVGDVFTLGASSWRIEEINKDQVLVTPAPGHTGRLPFWTGDQAGRPAELGKALGAFRRTLVADPSVVEGMGLDVRARSNVVAFIQQQQESTGVVPDEVTLVLERFRDELGDWRVVLHSPYGRGVNAAWALVAGAAFSQRTGMDAQPVASDDGIVLRVPESDAEPGADLFEIDPDTVEELVAQQVGNSALFAARFRECAARALLLPSRTPGKRAPLWQQRQRAAQLLDVARKYPSFPIVLETVRECLHDVYDLDALVELAAALKLRKVRIAEVTTQQP | not soluble |
| GPLGSDHVLHVTFPKEWKTSDLYQLFSAFGNIQISWIDDTSAFVSLSQPEQVKIAVNTSKYAESYRIQTYAEYMGRKQEEKQIKRKWTEDSWKEADSKRLN | soluble |
| MGSDKIHHHHHHMVVNESMYQLGSVRSAIRELFEYGKKRAAIVGKENVYDFSIGNPSIPAPQIVNDTIKELVTDYDSVALHGYTSAQGDVETRAAIAEFLNNTHGTHFNADNLYMTMGAAASLSICFRALTSDAYDEFITIAPYFPEYKVFVNAAGARLVEVPADTEHFQIDFDALEERINAHTRGVIINSPNNPSGTVYSEETIKKLSDLLEKKSKEIGRPIFIIADEPYREIVYDGIKVPFVTKYYDNTLVCYSYSKSLSLPGERIGYVLVPDEVYDKAELYAAVCGAGRALGYVCAPSLFQKMIVKCQGATGDINAYKENRDLLYEGLTRIGYHCFKPDGAFYMFVKALEDDSNAFCEKAKEEDVLIVAADGFGCPGWVRISYCVDREMIKHSMPAFEKIYKKYNK | not soluble |
| MVVKSLVYGIYPRSERLRKAYNRWERGLVGNEEIRRTISEEKDRFYEYVKSVGISEFTDPLFNWHDIFRPIALSVSGVTLGPLKRYLETNTFYREPEISGHITLQRKLDTFDLLEENPPLPLFALAKGSSIFLPTPSSFYKMSSVKANIGAEELYKDLVNVYSDIIDIFKPRSLVLYEVFPYNGDNLSYLESLNQKISVHLLTKGKISEKNFNGIKHKFESIISDDHPEFLKNYAKYYGFKIIDVNKTKVEDPNADYGIENYEDAIVTSNDYFDFLPREIADIKVEVLGKVGEAAALEHHHHHH | not soluble |
| MEMNVAAPAAAVAGAAAPQPGQNQTGSSYTMASLYVGDLHPDVNESILFEKFSAAGPVLSIRVCRDNATRLSLGYAYVNFQQPADAERAMDTMNFEALHGKPMRIMWSQRDPAMRRSGAGNIFIKNLDKVIDNKSIYDTFSLFGNILSCKVAIDEDGFSKGYGFVHFETEEAAQNAIQKVNGMLLAGKKVFVGKFQPRAQRNRELGETAKQFTNVYVKNFGDHYNKETLEKLFAKFGNITSCEVMTVEGKSKGFGFVAFANPEEAETAVQALHDSTIEGTDLKLHVCRAQKKSERHAELKKKHEQHKAERMQKYQGVNLYVKNLDETVDDDGLKKQFESYGNITSAKVMTDENGRSKGFGFVCFEKPEEATSAVTEMNSKMVCSKPLYVAIAQRKEDRRAQLASQYMQRLASMRMHGNVPGAAMYNPTQPGPGYYVANPMQQQRNFAGGQQMVRPGGRWGMQNQYPVQNQYMMAQGPGVYQNRMGRPQNQQGGPRGPPQQYNQVAQGGVRMQGPPRTQNPGVQQQNVPRPPQQQQQQRPAPTGPKAPPQPYQAYQQRPQGIVIGGQEPLTSAMLAAAAPQEQKQLLGERIYALIEKLYPGHKDAGKITGMMLEIDNSELIMMLQDSELFRSKVDEAASVLVSAQKQ | not soluble |
| MSTTPGTPHGVTHSLMEQGWYWADADRSAVSKALSDQPDGSFIVRNASTPGDYTLSVKFAAQVKLLRIVVKDGKCGFNTDSLTHDSVVRLIEFHRNISLNIFNDALDVRLLYPVSVRRNSQNGKPFFKKGQLQQRMILSAKNDHDWRERLEMENLRAVHLAFERGAKLYDSAHQEMERAESLYHALNQSVRDNEIKLGKLNNLLEAETDVVTQIQGSQTTSEMLKGAFANNKTFVEESIRRINTELTSSKDKKKTLSGILDEIAMKRSNSKTRLCKLMELRSAVYDKMEPALCSRMAAMLDAGAEMINSEPTKVTQLLVDMELKWTPAQYLMCGTSKENAANALIHARYRIAQLDKAVGLKREPQDGIFLIRGSSSHGDKLVLSVLHGERVSHCLIEQNEEGWGFEHSNVYLTTISDFVRYYSHFSLETHADAIKTPLRTPAFDAVTSDTSKPLRNGPGQVFTALPISRKYMEKALLTDDPTKPPESPEPRPDSWDSPSPDTPSSSDSRLVHPTTLPKSIPE | not soluble |
| MDPFGILYTDLYQLTMGQVYFRMGLHEKEALFEAFYRRNPDYGAHQAGYTVFAGLDPLLSWMEEARFGEEEIAALRNLKSRSGKPLFAEDYLRYLKAMGGFSGLTLRALPEGRVAHPQVPLVSVEGPLLQAQLLETALLNRLNYETLIATKASRVREAAGEAVVLEFGLRRAPAKGGESATRASLIGGANRSSAVSLSHLLGLPASGTHAHSLVQAFMALGYSEEDAFRAFAEVFPDDAILLLDTVDTLHSGLPHAIRVFEELRRKGHRPVGVRIDSGDLAHLAIQVARELDRAGFPEVLIVLSGDLDELVIWQIKSQILEEAPRYGVDPDRLLKRLVYGVGTRMVVSWGAPALGGVYKLVAVRENGTWAPAMKVSNSLEKVLNPGHKRVYRVYDERGLATADLLALAEEEVREDAPLTLRHPTDPTKRRTLRPGSFRLEPLLEEVYRGRRLFPPLPLEELRKRRDRDVALLDPGVRRLVNPHVYHVSLTERLFALKEELVRRLEG | soluble |
| GHHHHHHMTTQLEQAWELAKQRFAAVGIDVEEALRQLDRLPVSMHCWQGDDVSGFENPEGSLTGGIQATGNYPGKARNASELRADLEQAMRLIPGPKRLNLHAIYLESDTPVSRDQIKPEHFKNWVEWAKANQLGLDFNPSCFSHPLSADGFTLSHADDSIRQFWIDHCKASRRVSAYFGEQLGTPSVMNIWIPDGMKDITVDRLAPRQRLLAALDEVISEKLNPAHHIDAVESKLFGIGAESYTVGSNEFYMGYATSRQTALCLDAGHFHPTEVISDKISAAMLYVPQLLLHVSRPVRWDSDHVVLLDDETQAIASEIVRHDLFDRVHIGLDFFDASINRIAAWVIGTRNMKKALLRALLEPTAELRKLEAPGDYTARLALLEEQKSLPWQAVWEMYCQRHDTPAGSEWLESVRAYEKEILSRRG | soluble |
| MSDEKKKKRGFFRYSVLTTSSFSSWRRSSTSGSISQSSRTTSKTTTSSSVTSSNPINAPPPTATSSSSVLPSTSSEPPPPASAPPRISIYHKMVPSKSKFRQCDVCEHIFIFDFVRKQHLDDVYACNVCGIRVHKGCLDRVKNDCKITTQYMGGILENAVIQSNKKQWEKPTTASISKSLTTSPTCSTSTTMSPAGVEKNVHKTRKLISMTTSTLDDVTTFNSEINEEMDEETVLMTWEDVTIKLTDVDVMTKIGDGRFGSVYFGGYHGNAAVRFVNMNYLSQEDRRADVFATEIVSAYKNSRHDHIALFYGYVSDPVTNTYAIVTNFYQHNTLYHRIHEQLSEDFDQSWTFQISLQICQAMSYLHKKKILHRDLRTKNILLDNPNRVVVTDFALMKLERLENPRRNCTLLIPNHWIDYLSPEIAGNLMIDWRGDVLFQHELPFSQESDVYSFGTIFFELLLRRMPTGCDSWDQKLYAKMCGQKAALQRLDAQLQKIDGKLHELLLECWSSQPEKRPSFQQIVKRITVQMPRKESNKQKRRSTAHENPLF | not soluble |
| MVKQRSELLFLYDVQWANPNGDPVDGNKPRIDEETGKNIVTDVRLKRTIRDYLYEYRHQEIFVREIAQDDDYIQDAKARAEDFLVKDGEKLDKSKLTLSEMKKIINDEVLRQCIDVRLFGVTLPIEKSSKEKSSITHTGPVQFKMGQSLHRVKLEYIKGTGAFASGGQMTQKTFREEYVLPYSLIAFYGVINETAARFTRLTEEDVELLVDAMWEGTKNLISRSKVGHVPRLLLRVVYQEPHFHIGELDKYISLHTEKAEEEIRDAQDYVLDVSRLIEVLAREKEKIANIELRQDERLVCNENLVDRLRQEGIVVDIR | not soluble |
| MGSDKIHHHHHHMSKHALKLIPSSTEHADVPNDCKNCGAYHLCMSLWLKTADSSLLERVVKKKQVFKRGEVLYRMGQPLEYIYVIRGGSVKTCVSTEDGQVQVMGFHAAGELLGLNAISNREHKCEARAMGVTSVCEVSVERFEELAKKDPAIQYEILKIMSAEIHHGQELLLLLGKHNAEERIAIFLLNLSRQFEQRHCSATEFTLCMSRSDIGNYLGIAEETVCRIFARFQDDGLISSEYRNVKLKDIKRLEQIANQRPQRSLRQTNVASLYF | not soluble |
| MTHPRDSIALTSDSLVLRFLSESGIPISDNNKVRLLKSGREKFIDLFSAIRDAKHHIHLEYFNFRNDSIANALFDLLAEKVKEGVEVRAMFDAFGNWSNNKPLKKRHLKKIREQGIEIVKFDPFTFPYINHAAHRDHRKIAVIDGEVAYTGGMNIADYYINGLPKIGTWRDMHMRIEGDAVNDLQEIFLTIWNKETKQNIGGEAYFPKHKEQSDSTNVVVAIVDRTPKKNSRMLSHA | not soluble |
| MFALVLAAGRSRRFDGDKRKALLPCGRTLLTACLETAGKVFTETGVVLREDDEVQTLGIPSKVTIIRCKHADLGMGHSLAAGIAAALNSSADAVAILLADMPWIEPQTLRDLARLADPQRIALPMHEGQRGHPVIIGRRFWPRLLALEGDQGAKALITNNPAFCDVMNCDDPGVLRDADTRSALAIACRQHLTAGRDLEHHHHHH | not soluble |
| MAHHHHHHMSVPSLRRSDRSGDPTRDRVHYVRAQRQHLVRETRMLQMALEELQEEAERENTEEALMRRGIDTTHRELLRCLLHLALAEQDSTRGAAAASGAQAQYDETSAIICEVLRRYKHEQDAFTQEAKQRLESIREEARQACMNVGDTLAVPQGEHAHSSGVGSVVEATDCDSLRSALEALREMQAEVDEETEATLLSIGRTLFC | not soluble |
| MSLENTEKLKNSKEVIAYIAECFPNCFTLEGEAKPLKIGIFQDLADRLNDDPKVSKTQLRAALRQYTSSWRYLHGVKPGATRVDLDGNPCGELEEQHVEHAQAALAESKARVEARRKEQVKKVREEAKANKPKAKKPQQARRPQNAPKVEKKPVETRALAASELNVGNQVNVNMGKGNMAATIVEVNKEDVRVQLANGLQMVVKAEHLRAEGGSHHHHHH | soluble |
| MSAPLFSVVVPAYNQHKFIDSCLTSLQRQTLTDFEVFVVDDCSTDDTGEQIAALIKGDDRFHVITHAHNRGVSAARNSGMAAAKGKYLCFVDGDDWVEPDFLATFLAAYRSAPDTQLVVCGHYGYLAVPSPAKTYNQKDLIANINFGTVGGFSWNKAFIRSIITTHHLKFNEDIDFLEDQLFAFRYANYVQSSEYVPDRTYHYRWRFRSNLAHIGIPFFTARRKMMKILKQENKQVLNEDWNNQ | not soluble |
